Consider 55 sequences from the supplement of paper PMC12636428.

For the data set, the system named is Saccharomyces cerevisiae. The data set can be described thus: transcriptional activation domain activity (GFP:mCherry ratio, weighted mean of sorted bins, harmonized to initial dataset scale) (arbitrary fluorescence ratio units); higher = stronger transcriptional activation. The conditions noted are these: beta-estradiol 1 µM; induction time 4 h. In short, it runs like this:
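Sorting into 8 bins by GFP:mCherry ratio followed a 4-hour hold at 30 °C after cultures were diluted 1:5 into SC with 1 uM beta-estradiol. The yeast diploids carried a GFP reporter and had barcoded protein tiles, fused to an estradiol-inducible synthetic transcription factor, integrated at URA3. Barcodes were then sequenced, and tiles with under 50 reads were removed. Activation activity is the read-weighted mean of bin median fluorescence, averaged across barcodes and linearly mapped onto the initial dataset scale.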
In the case of “ALKILVLLIFLMDTLHTYGVISYQWGLFLFCHHNATSACLSVLPWEIFMAVVL”, the “transcriptional activation domain activity” value turned out to be 56300. As to “RLWQLILCKLEHFHLGFFLLGSVNNIYFTYKILNDMFDIVLLGQDQQDNDDEL”, the “transcriptional activation domain activity” value was 60000. On to “REARRHADEEARRRQARQEARRHADEEARRRQEEELARQEARRHADEEARRRQ”, for which the “transcriptional activation domain activity” value was 27000.

On to “SIHLPKKITICTYIGTYYAIGAAWGFVLMNYFLTGWYFGLYDKYYIDSFGIYV”, for which the “transcriptional activation domain activity” value came out at 76000. Take “AVPGEVTEAEANGEAKAEGAAATTDEAAKPKKKKKSKSRKAKKTEDGTAPEEG”: the “transcriptional activation domain activity” value was determined as 37900.

Regarding “RRKRRERREEERGRDKQGEEGGGRKGGGNRKEGGGGRRGRRSRGGGGGGAEGA”, the “transcriptional activation domain activity” value was determined as 27800. In the case of “HQLYTDWLYLWWIAYTNKMHGRIYIILKESLKNLPIFGWGAQFYNFIFLCRNW”, the “transcriptional activation domain activity” value amounted to 56400.

For the sequence “MTFLPFSLFAFLFRCLLFFLAIFRLRYALFLFLFFSFLYLYPFYLHILHIVAY”, the “transcriptional activation domain activity” value amounted to 52600. Consider “MTTWHKVFFFFRNLSFFCLFCLSCFFFLLLFLMKLETTNKVSILYLSLTLILF”, for which the “transcriptional activation domain activity” value amounted to 43700. Take “MFCLRSWIPILFFLLRTNASPVYLILFLSATYFLNRPCVYCSFLLLILVIALF”: the “transcriptional activation domain activity” value turned out to be 59500. Regarding “YGADDFFFPPEGCDNNMLYPQTATSWNVLPPQAMQPAPTYVGRPYTPNYRSTP”, the “transcriptional activation domain activity” value is 71900. On to “MPPFFFGLWRIFFFFFFFFCKQLWWTVEFVTYVSCFFFLLNKLVFWLFFFSVC”, for which the “transcriptional activation domain activity” value turned out to be 58500. On to “MALPKDRDEEKEDEKDNAPKKGKRGPRKRVSQACDRCRTRKDKCDGKKPSCST”, for which the “transcriptional activation domain activity” value is 20800.

With “MVLIFFLYWLWFMWGLYLFFFSFFSRAKYWLLVLVVFFFGWGFYIVWSFSLHD”, the “transcriptional activation domain activity” value stood at 57500.

Take “EAEVTATGEKSSPARVVVLRARAADAGKLVSIAEIAKREIEKGTGGQGGGSGG”: the “transcriptional activation domain activity” value came out at 18100.

On to “TAGAATNNKRNRLKVNGKVFTRLDVIGRGGSSRVYRVMAENSKIFALKRVSLD”, for which the “transcriptional activation domain activity” value amounted to 35800. Take “PSGIIVLVICTLGLLCCTIMIILIFYFRYFKPIMSSSPIFCYLQLVGISMAYI”: the “transcriptional activation domain activity” value was 46000. Take “TLTQRLSGSMIYIWCSGGVVFAIVLALQVLVLFALLNVITCLEGHMLSIHGWP”: the “transcriptional activation domain activity” value amounted to 39900. For “MFLFLFLFVFLFVFLFLFLFLFLFLFLFLFMFPFLFPFLFPFPFPFPFPVLVL”, the “transcriptional activation domain activity” value was 52700.

For “TPQCPPTPTPPPAPASKSRPPPHTPTSTRARNNPPPPSCACGGCTRATSGSRR”, the “transcriptional activation domain activity” value was determined as 33800. For the sequence “DQIYIYQTPRWLCYECLVAMFTMFTIRLVYFWSLHVLNHLLTYKTFLFFFLSC”, the “transcriptional activation domain activity” value worked out at 47400. Consider “SLLMLLFIRGWFSYLIAVVSISGVLVLHMLYFLLQWRLKYILWLLLHCSIAIP”, for which the “transcriptional activation domain activity” value is 79500. For “RHLPAVNGGKLTSYAIVGEGSMSPHFVWTAHHAVYVVDGWSLALLFRKVELRY”, the “transcriptional activation domain activity” value came out at 48200. With “SLLLPQQPVFVSENVGSEFSSLNEFLSMLENPLLTQTSLSSSSASNVHLENGS”, the “transcriptional activation domain activity” value was found to be 98100. For “ASTKGRADVRGRSGKAAPQKGRGKARVGSKRAPHFRGGGIAFGPRPRDFSTEL” the value was 28300; for “DDAAADLQEAQAGASKKNRKRNRKKNAQDGPAEEATPSKGARQGKKGKGWRET”, 12000; for “MYICIYLLLGFVVWGISLICLVVIVILYILDNSFCSPYTSCSTSFPFLISLFY”, 40300. For “MIIGMWLFCHVGSSFSVYHMFPLLYFRLLLCYLVFWSCFLLTFSKVSFSFLFA” the value was 54400; for “MLICLFVVFSPFFLFIFLYLSAYRLSFFNFSCFLLFLYLFLIHLLYFPLYFIF”, 61200; for “PHLFVNQGKLESYAGVVTRVVDLVLGIYVIDDCHMLILTYWPLLSPLTVLRTG”, 51000.

As to “RRKRRRRGGEDEQQAEVEDNDRHRSSRHHRRRRRETSEEKSPRRRATDRRRHP”, the “transcriptional activation domain activity” value worked out at 34600. To “EVMKIMPVQKQTRAGQRTRFKAFVVIGDSDGHVGLGVKCAKEVATAIRGAIIL” belongs 55300; to “LRSVGRGGNSLVVIGFFVMNGVGIVLERVWKRICGRSVRGIWGWIWTFSWLAL”, 79900; to “EDEEEEEEEQEEEEEKEEEVLWAAAPEGGKPVEEEEEEEVVEAEEKKPGEEDA”, 24500.

For the sequence “RRTPFLGVGRSEGKMRLEKFVDEIGQQREDGTDEFLVRGSKEEKTDVVTAVNH”, the “transcriptional activation domain activity” value amounted to 9610. Consider “MMRRWNELGLDGWVQNQHGLDSFAFLQLAFRLPICCIFPSKILVVFPLLLLSA”, for which the “transcriptional activation domain activity” value was 52900. As for “SLPVSKGVWGSVGRVILLIFTAKPLEFCIQLTLVDFVEVDAHTMRVIHCRKVR”, the “transcriptional activation domain activity” value was found to be 28100. Turning to “YNVWILFRHLVDLILLNDFVAYSLFGFSWMQFSPNHSTFFHVLRWIGGWSLVG”, the “transcriptional activation domain activity” value is 69200. For “MRLLYCFFHPGRIFDWFCWIHHVFLLVFGWLPLDWLYNLWGLGSLPWTLQNMP” the value was 47300; for “DKPKTKPAAAKAKPKSATTKAKPASKASAKPSSKAGAKKPASKKATAAAAAKK”, 12000; for “AAAVAVAREHVQKEVVATVTVAKEHVQKEEVVAAVAVAREHAQKEVVATVAVA”, 56000. For “MAQVAVFLVHKVLYGIIPLFEIQTCAYFPLLVSLWHLNYMLFYVVMFMRLIIL”, the “transcriptional activation domain activity” value is 45300. For “EQLCMPIRRNDMRRRVELVRRCLLAALPSLPFWNEVCLWSTLNVFMSLLQDFF” the value was 82700. As to “RDKDDRRRHRDRDDQSSRSHRHHRHRDGDSDRDGDGHRHKRSRHSKAEEAKPS”, the “transcriptional activation domain activity” value was found to be 28800. Consider “HNILHLFSICVFRYHMLYYDEVRYIWKRWRRRSTYWFFLNRYFNFFGNGAITV”, for which the “transcriptional activation domain activity” value stood at 64600. As for “CSNIAEQADQCDFVKSYCDGFSGYYLMLYYCSPFWRPISIFILLSCLLMLFGA”, the “transcriptional activation domain activity” value was 30700. For “GEDTAQEGGEEGATSADEEETASTTRSGRKPKKIKTAVPIKRKRRSGRGGIAA” the value was 31200; for “MSNGSSFVQCIDTRLCLLYSLVFREHMAFHPIISSFLFLIRLLILLASLFLFF”, 48500; for “NSSNNNNNNNIISNRKQASKEKRKIPRHIQTIDEKLINDSNYLAFLKFDDLEN”, 83500. In the case of “MPVLPYFFAKFIIDIPRIVIGGSMFSLALVVFFPYQQPFVRMYGMVIILYFYS”, the “transcriptional activation domain activity” value was found to be 51200. To “HVDQWTVIEQCLLYHQTNFIYFLFFAPLPPFLCLFFLLFVSLVFLCFDPFPLI” belongs 42500; to “RLSASKIYIWCSGGVVFAIVLALQVLVLLALLNVITCLEGHMLSIHGWPRGEC”, 31100; to “LLGLYMKMRFRTQEDFWRQIAILLRDLFVPDLQAETVVFFMRLLYNSNSMYKH”, 24100. As for “GLDCDKQHVRECPDFAERGTCATRGCKLPHVIRANRNRKAPAPAAQKSTSTST”, the “transcriptional activation domain activity” value stood at 25500. For “YLVHAGVTQDFSLIGRKGVYSLGELEEIRHWVHQALLHCRLLLVCRKALQLVY” the value was 71800.
